According to publication PMC2423650 (Journal of Experimental Botany, 2008):

Target: the molecule itself
Assay: SEC

B1: atToc33-His (G-domain of atToc33, His-tagged) (domain or fragment, Arabidopsis thaliana, UniProt O23680 1-251, looked up)
chain: MGSLVREWVGFQQFPAATQEKLIEFFGKLKQKDMNSMTVLVLGKGGVGKSSTVNSLIGEQVVRVSPFQAEGLRPVMVSRTMGGFTINIIDTPGLVEAGYVNHQALELIKGFLVNRTIDVLLYVDRLDVYRVDELDKQVVIAITQTFGKEIWCKTLLVLTHAQFSPPDELSYETFSSKRSDSLLKTIRAGSKMRKQEFEDSAIAVVYAENSGRCSKNDKDEKALPNGEAWIPNLVKAITDVATNQRKAIHVD
Question: Which Kd does the source give for B1 here?
Answer: The Kd was 400 µM.

Question: And the “stoichiometry N” value?
Answer: The value was 2.

B2: atToc33S/E-His (phospho-mimicking mutant of the atToc33 G-domain) (domain or fragment, Arabidopsis thaliana, UniProt O23680 1-251, looked up)
chain: MGSLVREWVGFQQFPAATQEKLIEFFGKLKQKDMNSMTVLVLGKGGVGKSSTVNSLIGEQVVRVSPFQAEGLRPVMVSRTMGGFTINIIDTPGLVEAGYVNHQALELIKGFLVNRTIDVLLYVDRLDVYRVDELDKQVVIAITQTFGKEIWCKTLLVLTHAQFSPPDELSYETFSSKRSDELLKTIRAGSKMRKQEFEDSAIAVVYAENSGRCSKNDKDEKALPNGEAWIPNLVKAITDVATNQRKAIHVD
Question: B2 was tested. Which “fold change of the dissociation constant against atToc33” value did it give?
Answer: The value was roughly 10 fold.

Question: What about the “stoichiometry N” value of the same protein?
Answer: Its value is 2.
